From patent US20130171184A1 (MACK TRUCKS, published 2013) come the findings set out here.

The labels stand for the following.
B1: biotinylated vitronectin peptide AR-36 (Vn residues A360-R395, heparin-binding region) (peptide)
peptide: Biotin-APRPSLAKKQRFRHRNRKGYRSQRGHSRGRNQNSRR
notes: Synthetic peptide immobilised on extravidin coated plates; also called HBD peptide
B2: biotinylated vitronectin peptide VA-26 (amino acids 43-68) (peptide)
peptide: Biotin-VTRGDVFTMPEDEYTVYDDGEEKNNA
notes: Synthetic peptide of human vitronectin V43-A68
B3: Neisseria meningitidis Opc of strain H44/76, expressed on meningococci (other)
chain: AQELQTANEFTVHTDLSSISSTRAFLKEKHKAAKHISVRADIPFDANQGIRLEAGFGRSKKNIINLETDENKLGKTKNVKLPTGVPENRIDLYTGYTYTQTLSDSLNFRVGAGLGFESSKDSIKTTKHTLHSSRQSWLAKVHADLLSQLGNGWYINPWSEVKFDLNSRYKLNTGVTNLKKDINQKTNGWGFGLGANIGKKLGESASIEAGPFYKQRTYKESGEFSVTTKSGDVSLTIPKTSIREYGLRVGIKF
notes: also called Opc-expressing Nm; (GB) Opc+Δµ
B4: Neisseria meningitidis Hsf (Msf) of strain H44/76, expressed on meningococci (other)
chain: NNEEQEEDLYLDPVQRTVAVLIVNSDKEGTGEKEKVEENSDWAVYFNEKGVLTAREITLKAGDNLKIKQNGTNFTYSLKKDLTDLTSVGTEKLSFSANGNKVNITSDTKGLNFAKETAGTNGDTTVHLNGIGSTLTDTLLNTGATTNVTNDNVTDDEKKRAASVKDVLNAGWNIKGVKPGTTASDNVDFVRTYDTVEFLSADTKTTTVNVESKDNGKKTEVKIGAKTSVIKEKDGKLVTGKDKGENGSSTDEGEGLVTAKEVIDAVNKAGWRMKTTTANGQTGQADKFETVTSGTNVTFASGKGTTATVSKDDQGNITVMYDVNVGDALNVNQLQNSGWNLDSKAVAGSSGKVISGNVSPSKGKMDETVNINAGNNIEITRNGKNIDIATSMTPQFSSVSLGAGADAPTLSVDGDALNVGSKKDNKPVRITNVAPGVKEGDVTNVAQLKGVAQNLNNRIDNVDGNARAGIAQAIATAGLVQAYLPGKSMMAIGGGTYRGEAGYAIGYSSISDGGNWIIKGTASGNSRGHFGASASVGYQW
notes: Opc-deficient variants or mutants isolate the Msf effect; also called NhhA; NMB0992
B5: control peptide GS-22 (peptide)
peptide: Biotin-GSNENQKTVKAESVPNMSFDQS
B6: mouse vitronectin (other)
chain: DQESCKGRCTQGFMASKKCQCDELCTYYQSCCADYMEQCKPQVTRGDVFTMPEDDYWSYDYVEEPKNNTNTGVQPENTSPPGDLNPRTDGTLKPTAFLDPEEQPSTPAPKVEQQEEILRPDTTDQGTPEFPEEELCSGKPFDAFTDLKNGSLFAFRGQYCYELDETAVRPGYPKLIQDVWGIEGPIDAAFTRINCQGKTYLFKGSQYWRFEDGVLDPGYPRNISEGFSGIPDNVDAAFALPAHRYSGRERVYFFKGKQYWEYEFQQQPSQEECEGSSLSAVFEHFALLQRDSWENIFELLFWGRSSDGAREPQFISRNWHGVPGKVDAAMAGRIYVTGSLSHSAQAKKQKSKRRSRKRYRSRRGRGHRRSQSSNSRRSSRSIWFSLFSSEESGLGTYNNYDYDMDWLVPATCEPIQSVYFFSGDKYYRVNLRTRRVDSVNPPYPRSIAQYWLGCPTSEK
notes: also called mouse Vn
B7: rabbit vitronectin (other)
chain: DQESCKDRCTEGFNANRKCQCDELCSYYQSCCADYAAECKPQVTRGDVFTMPEDEYGPYDYIEQTKDNASVHAQPESPTVGQEPTLSPDLQTEGGAEPTHEVPLEPEMETLRPEGEDLQAGTTELGTSASPAEEELCSGKPFDAFTDLKNGSLFAFRGQYCYELDETAVRPGYPKLIQDVWGIEGPIDAAFTRINCQGKTYLFKGSQYWRFEDGILDPDYPRNISEGFSGIPDNVDAAFALPAHSYSGRERVYFFKGDKYWEYQFQQQPSQEECEGSSLSAVFEHFAMLHRDSWEDIFKLLFWGRPSGGARQPQFISRDWHGVPGKVDAAMAGRIYISGLTPSPSAKKQKSRRRSRKRYRSRYGRGRSQNSRRLSRSISRLWFSSEEVSLGPYNYEDYETSWLKPATSEPIQSVYFFSGDKYYRVNLRTQRVDTVNPPYPRSIAQYWLGCPAPGGQ
notes: also called rabbit Vn

Test [1] concerns the target B4. Briefly: ELISA, bacteria on peptide immobilised on extravidin coated plates.
For test [2], the target named is B4. As to the kind of experiment: ELISA, bacteria on immobilised biotinylated peptide. A general note: In an ELISA, binding on a coated surface is turned into a signal by an enzyme label.
A further test has as its target control peptide SY-30 (N-terminal biotin). Briefly: ELISA with immobilised peptides.
The target of the test “control peptide GS-22” is B5. Briefly: ELISA with immobilised peptides.
The target of test [3] is T1, native human vitronectin preparation (nVn) (human, UniProt P04004 20-478).
T1 construct: Same protein as m4 in the native, closed conformation; also called native Vn
Briefly: binding of bacteria to nVn against aVn as reference.

The target of test [4] is human fibronectin (from serum) (human, UniProt P02751 32-2296). As to the kind of experiment: bacteria incubated in decomplemented serum, dot blot with specific antibodies.
Test [5] addresses B4. Briefly: ELISA with immobilised peptides.
For test [6], the target named is B4. Briefly: ELISA, bacteria on immobilised vitronectin.
Test [7] addresses B4. Briefly: ELISA, bacteria on immobilised heparin-affinity purified vitronectin.

Where no end group is shown, it is not given here. The star is where a group is joined. Biotin = O=C1N[C@H]2[C@H](CS[C@H]2CCCCC(=O)*)N1

T1 sequence (P04004 20-478 limits assumed): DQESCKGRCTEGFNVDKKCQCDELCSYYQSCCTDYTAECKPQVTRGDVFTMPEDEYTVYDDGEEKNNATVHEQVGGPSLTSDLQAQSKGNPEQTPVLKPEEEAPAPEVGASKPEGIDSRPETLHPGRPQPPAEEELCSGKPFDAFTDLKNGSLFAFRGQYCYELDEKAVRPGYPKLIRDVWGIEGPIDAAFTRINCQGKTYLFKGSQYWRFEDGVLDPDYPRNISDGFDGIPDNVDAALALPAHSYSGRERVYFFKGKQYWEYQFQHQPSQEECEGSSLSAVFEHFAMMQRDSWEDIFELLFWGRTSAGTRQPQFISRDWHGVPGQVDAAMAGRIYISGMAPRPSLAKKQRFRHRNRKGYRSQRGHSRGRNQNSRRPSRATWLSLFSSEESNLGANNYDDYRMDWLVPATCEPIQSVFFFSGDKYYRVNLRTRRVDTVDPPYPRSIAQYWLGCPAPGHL
Sequence of human fibronectin (from serum) (P02751 other isoform, or with tags, fused parts or gaps limits assumed): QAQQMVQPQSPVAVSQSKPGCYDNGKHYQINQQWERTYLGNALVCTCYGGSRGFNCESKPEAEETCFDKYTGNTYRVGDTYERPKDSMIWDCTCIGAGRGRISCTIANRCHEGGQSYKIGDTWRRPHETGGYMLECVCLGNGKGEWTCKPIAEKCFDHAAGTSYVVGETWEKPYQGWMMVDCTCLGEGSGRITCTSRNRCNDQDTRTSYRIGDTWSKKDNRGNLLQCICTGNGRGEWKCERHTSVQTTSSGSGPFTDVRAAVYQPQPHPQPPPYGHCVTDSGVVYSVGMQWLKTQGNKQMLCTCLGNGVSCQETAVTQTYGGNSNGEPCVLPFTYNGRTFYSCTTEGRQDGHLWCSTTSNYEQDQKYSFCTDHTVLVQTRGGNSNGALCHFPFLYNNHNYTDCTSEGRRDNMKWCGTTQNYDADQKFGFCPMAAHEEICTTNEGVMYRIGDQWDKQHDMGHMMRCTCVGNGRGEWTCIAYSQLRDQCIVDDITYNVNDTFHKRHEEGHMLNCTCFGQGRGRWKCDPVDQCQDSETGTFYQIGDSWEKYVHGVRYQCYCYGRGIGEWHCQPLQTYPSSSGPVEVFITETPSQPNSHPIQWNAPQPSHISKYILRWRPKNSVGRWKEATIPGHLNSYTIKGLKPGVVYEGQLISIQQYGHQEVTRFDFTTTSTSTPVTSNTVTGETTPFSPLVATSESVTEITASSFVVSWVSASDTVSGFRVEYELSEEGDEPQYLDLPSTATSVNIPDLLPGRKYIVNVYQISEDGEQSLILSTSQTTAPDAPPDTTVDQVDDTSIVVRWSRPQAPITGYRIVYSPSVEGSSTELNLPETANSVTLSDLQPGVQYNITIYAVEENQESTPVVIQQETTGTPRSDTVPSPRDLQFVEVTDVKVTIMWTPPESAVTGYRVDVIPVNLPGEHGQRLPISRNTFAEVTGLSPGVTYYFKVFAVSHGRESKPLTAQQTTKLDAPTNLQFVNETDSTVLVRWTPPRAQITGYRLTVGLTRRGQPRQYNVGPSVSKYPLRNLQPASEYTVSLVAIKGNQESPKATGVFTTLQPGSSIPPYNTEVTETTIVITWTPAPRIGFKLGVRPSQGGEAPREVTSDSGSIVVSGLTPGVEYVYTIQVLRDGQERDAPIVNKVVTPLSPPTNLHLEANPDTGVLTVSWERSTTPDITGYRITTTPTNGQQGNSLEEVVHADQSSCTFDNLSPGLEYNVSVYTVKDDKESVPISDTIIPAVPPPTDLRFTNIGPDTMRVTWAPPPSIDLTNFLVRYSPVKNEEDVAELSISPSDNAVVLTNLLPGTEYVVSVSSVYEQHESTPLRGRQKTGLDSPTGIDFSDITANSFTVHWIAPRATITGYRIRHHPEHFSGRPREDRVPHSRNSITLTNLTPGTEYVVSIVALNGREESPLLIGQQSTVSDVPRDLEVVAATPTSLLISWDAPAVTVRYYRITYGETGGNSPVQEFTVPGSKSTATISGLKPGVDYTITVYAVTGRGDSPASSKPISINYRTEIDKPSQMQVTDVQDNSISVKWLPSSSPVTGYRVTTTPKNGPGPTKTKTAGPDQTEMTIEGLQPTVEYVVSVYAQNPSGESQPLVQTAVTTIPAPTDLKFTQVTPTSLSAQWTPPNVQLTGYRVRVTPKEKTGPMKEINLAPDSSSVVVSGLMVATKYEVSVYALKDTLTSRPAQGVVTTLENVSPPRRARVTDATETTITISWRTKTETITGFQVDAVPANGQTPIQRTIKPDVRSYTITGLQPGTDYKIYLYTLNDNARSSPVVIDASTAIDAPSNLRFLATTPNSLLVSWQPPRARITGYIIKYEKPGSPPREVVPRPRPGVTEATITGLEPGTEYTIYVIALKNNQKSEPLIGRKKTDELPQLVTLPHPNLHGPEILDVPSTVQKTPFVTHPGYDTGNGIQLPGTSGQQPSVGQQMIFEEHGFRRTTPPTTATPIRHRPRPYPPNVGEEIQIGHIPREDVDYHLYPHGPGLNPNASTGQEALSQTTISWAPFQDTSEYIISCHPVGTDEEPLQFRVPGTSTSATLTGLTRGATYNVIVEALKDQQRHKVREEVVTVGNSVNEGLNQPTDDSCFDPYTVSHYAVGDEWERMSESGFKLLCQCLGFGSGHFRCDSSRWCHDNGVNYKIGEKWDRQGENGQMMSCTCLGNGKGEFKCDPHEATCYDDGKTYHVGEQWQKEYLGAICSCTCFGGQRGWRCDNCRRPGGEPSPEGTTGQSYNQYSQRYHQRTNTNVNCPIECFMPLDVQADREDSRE

Turning to B1, in test [1], the binding result is given as “binds”.
On to B2, for which the binding result in test [2] is given as “binds”.
Take B3: the binding result in the test with control peptide SY-30 and with control peptide GS-22 was “no binding” each time. For the same molecule, the “binding relative to the fully activated preparation of Vn” value in [3] was around 30%.
As to B4, in test [3], the “binding relative to the fully activated preparation of Vn” value was around 30%. The binding result in [4] is on record as “no binding (tested: 10% pooled human serum)”.
Regarding B5, the binding result in test [5] was “no binding”.
B6: the binding result in [6] is listed as “binds”.
In the case of B7, in test [7], the binding result is recorded as “binds”.
